Laboratory results published in patent EP3444273A1 (Medicinal Bioconvergence Research Center, dated 2019).
Ends that are not written are not given here.

T1: BSA-conjugated AIMP2-DX2 antigen peptide (human, not fully specified (residue 12); also: C-terminal Cys conjugated to BSA carrier)
T1 construct: The BSA carrier is not written as a chain; also called AIMP2-DX2 antigen peptide (the same peptide used in the rabbit immunization, conjugated to BSA)
T1 peptide: GHVQDYGALKDC

T2: wild-type AIMP2 protein (human, UniProt Q13155 1-320)
T2 construct: Endogenous protein of H460 cell lysate; also called wild-type (WT) AIMP2
T2 sequence (looked up): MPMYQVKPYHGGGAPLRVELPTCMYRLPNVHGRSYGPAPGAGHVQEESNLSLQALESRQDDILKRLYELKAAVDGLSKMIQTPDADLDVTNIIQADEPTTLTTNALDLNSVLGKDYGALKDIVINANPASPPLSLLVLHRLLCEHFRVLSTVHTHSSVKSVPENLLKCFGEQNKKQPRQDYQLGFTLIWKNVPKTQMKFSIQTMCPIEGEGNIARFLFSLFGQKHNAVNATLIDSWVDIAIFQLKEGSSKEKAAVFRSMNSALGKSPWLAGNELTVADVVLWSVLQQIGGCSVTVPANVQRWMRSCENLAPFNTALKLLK

T3: AIMP2-DX2 antigen peptide (human, not fully specified)
T3 construct: Used in solution for pre-adsorption in Western blots (100 ug/ml) and as analyte in SPR
T3 peptide: GHVQDYGALKD

B1: H5 Fab (Fab, V domains shown)
VH: QEQLVESGGGLVTPGGTLTLTCTASGFTISSYHMTWVRQAPGKGLEWIGVISNSGGTSYANWAKGRFTISKTSTTVDLKITSPTTEDTATYFCVRGVPGINSNLWGQGTLVTISS
VL: AQVLTQTPSSVSAAVGGTVTINCQSSQSVYSGNWLAWYQQKPGQPPKLLIYSTSTLASGVPSRFKGSGSGTQFTLTVSDLECDDAATYYCAGDYDGYKNAFGGGTKVVVKR
notes: Expressed from pComb3XTT in E. coli and used as periplasmic extract; Detected with anti-HA tag or anti-human Fab secondary antibody, so a tag may be present; also called antibody (Fab) of clone H5; rabbit/human chimeric Fab
B2: H5 IgG antibody (antibody, V domains shown)
VH: B1 VH
VL: B1 VL
notes: also called H5 antibody (IgG); H5 antibody

What was measured:
[1] = biological target: T1, BSA-conjugated AIMP2-DX2 antigen peptide; test: ELISA, plate coated with BSA-conjugated antigen peptide, periplasmic extract
wild-type AIMP2 protein = biological target: T2, wild-type AIMP2 protein; test: Western blot of H460 cell lysate
[2] = biological target: T3, AIMP2-DX2 antigen peptide; test: antigen pre-adsorption, Western blot of HEK293T lysate, peptide at 100 ug/ml
[3] = biological target: T3, AIMP2-DX2 antigen peptide; test: SPR, H5 IgG coated on CM5 chip, peptide flowed at various concentrations

Row | Binder | binding result [1] | binding result (wild-type AIMP2 protein) | binding result [2] | binding result [3]
1 | B1 | binds | no binding | binds | 
2 | B2 |  |  |  | binds
